In the supplement of paper PMC11246515:
± gives the standard deviation of the averaged measurements.

Test: total protein half-life in vivo (active degradation + dilution); higher = more stable protein
[1] = E. coli NCM3722 delta-clpP, growth: N-lim chemostat, doubling time 6 h
[2] = E. coli NCM3722 delta-hslV, growth: N-lim chemostat, doubling time 6 h
[3] = E. coli NCM3722 delta-lon, growth: N-lim chemostat, doubling time 6 h
[4] = E. coli NCM3722 delta-smpB, growth: N-lim chemostat, doubling time 6 h
[5] = wild type E. coli NCM3722, growth: C-lim chemostat, doubling time 3 h
[6] = wild type E. coli NCM3722, growth: C-lim chemostat, doubling time 6 h
[7] = wild type E. coli NCM3722, growth: N-lim chemostat, doubling time 6 h
[8] = wild type E. coli NCM3722, growth: N-lim chemostat, doubling time 12 h
[9] = wild type E. coli NCM3722, growth: P-lim chemostat, doubling time 6 h
[10] = wild type E. coli NCM3722, growth: P-lim chemostat, doubling time 12 h
[11] = E. coli NCM3722 delta-clpP delta-lon delta-hslV, growth: N-lim chemostat, doubling time 6 h
[12] = wild type E. coli NCM3722, growth: C-lim chemostat, doubling time 12 h

Sequence	total protein half-life in vivo [1] [h]	total protein half-life in vivo [2] [h]	total protein half-life in vivo [3] [h]	total protein half-life in vivo [4] [h]	total protein half-life in vivo [5] [h]	total protein half-life in vivo [6] [h]	total protein half-life in vivo [7] [h]	total protein half-life in vivo [8] [h]	total protein half-life in vivo [9] [h]	total protein half-life in vivo [10] [h]	total protein half-life in vivo [11] [h]	total protein half-life in vivo [12] [h]
MKKRVYLIAAVVSGALAVSGCTTNPYTGEREAGKSAIGAGLGSLVGAGIGALSSSKKDRGKGALIGAAAGAALGGGVGYYMDVQEAKLRDKMRGTGVSVTRSGDNIILNMPNNVTFDSSSATLKPAGANTLTGVAMVLKEYPKTAVNVIGYTDSTGGHDLNMRLSQQRADSVASALITQGVDASRIRTQGLGPANPIASNSTAEGKAQNRRVEITLSPL	5.47	6.78 ± 0.46	6.16 ± 0.47	5.3 ± 0.5	2.78 ± 0.1	5.45 ± 0.11	5.81 ± 0.95	12.6	5.82	11.4 ± 0.82		
MSKIRVLSVDDSALMRQIMTEIINSHSDMEMVATAPDPLVARDLIKKFNPDVLTLDVEMPRMDGLDFLEKLMRLRPMPVVMVSSLTGKGSEVTLRALELGAIDFVTKPQLGIREGMLAYNEMIAEKVRTAAKASLAAHKPLSAPTTLKAGPLLSSEKLIAIGASTGGTEAIRHVLQPLPLSSPALLITQHMPPGFTRSFADRLNKLCQIGVKEAEDGERVLPGHAYIAPGDRHMELSRSGANYQIKIHDGPAVNRHRPSVDVLFHSVAKQAGRNAVGVILTGMGNDGAAGMLAMRQAGAWTLAQNEASCVVFGMPREAINMGGVCEVVDLSQVSQQMLAKISAGQAIRI					2.09 ± 0.19	3.21 ± 0.2				9.95	4.85	5.6 ± 0.28
MRLFNWRRQAVLNAMPLVKPDQVRTPWHEFWRRFRRQHMAMTAALFVILLIVVAIFARWIAPYDAENYFDYDNLNNGPSLQHWFGVDSLGRDIFSRVLVGAQISLAAGVFAVFIGAAIGTLLGLLAGYYEGWWDRLIMRICDVLFAFPGILLAIAVVAVLGSGIANVIIAVAIFSIPAFARLVRGNTLVLKQQTFIESARSIGASDMTVLLRHILPGTVSSIVVFFTMRIGTSIISAASLSFLGLGAQPPTPEWGAMLNEARADMVIAPHVAVFPALAIFLTVLAFNLLGDGLRDALDPKIKG	6.63	6.48 ± 0.35		6.59 ± 0.99	3.08 ± 0.21	6.44 ± 0.14	6.817 ± 0.047	12.4 ± 1.2	6.55 ± 0.52			13.6
MIAIADILQAGEKLTAVAPFLAGIQNEEQYTQALELVDHLLLNDPENPLLDLVCAKITAWEESAPEFAEFNAMAQAMPGGIAVIRTLMDQYGLTLSDLPEIGSKSMVSRVLSGKRKLTLEHAKKLATRFGISPALFID	1.51									1.85	4.71	
MNLTLKESLVTRSRVFSPWTAFYFLQSLLINLGLGYPFSLLYTAAFTAILLLLWRTLPRVQKVLVGVSSLVAACYFPFAQAYGAPNFNTLLALHSTNMEESTEILTIFPWYSYLVGLFIFALGVIAIRRKKENEKARWNTFDSLCLVFSVATFFVAPVQNLAWGGVFKLKDTGYPVFRFAKDVIVNNNEVIEEQERMAKLSGMKDTWTVTAVKPKYQTYVVVIGESARRDALGAFGGHWDNTPFASSVNGLIFADYIAASGSTQKSLGLTLNRVVDGKPQFQDNFVTLANRAGFQTWWFSNQGQIGEYDTAIASIAKRADEVYFLKEGNFEADKNTKDEALLDMTAQVLAQEHSQPQLIVLHLMGSHPQACDRTQGKYETFVQSKETSCYLYTMTQTDDLLRKLYDQLRNSGSSFSLVYFSDHGLAFKERGKDVQYLAHDDKYQQNFQVPFMVISSDDKAHRVIKARRSANDFLGFFSQWTGIKAKEINIKYPFISEKKAGPIYITNFQLQKVDYNHLGTDIFDPKP	4.97 ± 0.21	5.49 ± 1.6	5.01	3.31 ± 0.29	2.94 ± 0.12		4.59 ± 0.6	10.2		8.42	4.78 ± 0.78	10.2 ± 1.1
MRVLGIETSCDETGIAIYDDEKGLLANQLYSQVKLHADYGGVVPELASRDHVRKTVPLIQAALKESGLTAKDIDAVAYTAGPGLVGALLVGATVGRSLAFAWDVPAIPVHHMEGHLLAPMLEDNPPEFPFVALLVSGGHTQLISVTGIGQYELLGESIDDAAGEAFDKTAKLLGLDYPGGPLLSKMAAQGTAGRFVFPRPMTDRPGLDFSFSGLKTFAANTIRDNGTDDQTRADIARAFEDAVVDTLMIKCKRALDQTGFKRLVMAGGVSANRTLRAKLAEMMKKRRGEVFYARPEFCTDNGAMIAYAGMVRFKAGATADLGVSVRPRWPLAELPAA	3 ± 0.72	3.73 ± 1.1	4.84 ± 1.2	3.17 ± 0.33	2.618 ± 0.021	4.72 ± 0.64	3.33 ± 0.5	4.16 ± 0.42	4.07 ± 0.11	8.07 ± 0.76	4.38 ± 0.12	7.77 ± 1.6
